This is an account of results in US20140294821A1.

For experiment [1], the target named is human von Willebrand factor, FVIII-free, plasma derived (human) (UniProt P04275). Briefly: SPR (BIAcore), hvWf as ligand, FVIII protein as analyte, N=5.
Experiment [2] has the same target. Put plainly: SPR (BIAcore), binding to vWF.
For experiment [3] the target is unchanged. Briefly: SPR (BIAcore), single-cycle kinetics 0.13-5.0 nM, plasma derived human vWF immobilized by amine coupling, 1:1 model, N=6.

Turning to “rBDD FVIII (recombinant B-domain deleted FVIII lacking Fc moieties) (from UniProt P00451 20-1667; P00451 1668-2351)”, in experiment [1], the equilibrium dissociation constant (Kd) came out at 0.846 nM, the koff was found to be 0.00114 s⁻¹ and the kon was determined as 1.37e+06 M⁻¹ s⁻¹.
In experiment [2], “rFVIIIFc (recombinant B-domain deleted human FVIII-Fc monomer hybrid), drug substance (from UniProt P00451 20-1667; P0DOX5 223-449) (Fc fusion)” returned a fold difference in affinity (KD) against rBDD FVIII of 2 fold, a fold difference in on-rate against rBDD FVIII of 2 fold and a fold of KD against BDD FVIII alone of 2 fold. In experiment [3], this substance registered a Kd of 0.34 nM, a koff of 0.00089 s⁻¹ and an on-rate (kon) of 2.6e+06 M⁻¹ s⁻¹. In experiment [1], this substance displayed a Kd of 1.64 nM, a koff of 0.00125 s⁻¹ and a kon of 792000 M⁻¹ s⁻¹.
